# Residue numbers refer to the chain shown, from its start. In names and notes the source's numbering stands.
# B1: CODA807: engineered chimeric LGIC receptor, Y115D, L131E in SEQ ID NO: 33 (protein)
# chain: MRCSPGGVWLALAASLLHVSLQGEFQRKLYKELVKNYNPLERPVANDSQPLTVYFSLSLLQIMDVDEKNQVLTTNIWLQMSWTDHYLQWNVSEYPGVKTVRFPDGQIWKPDILLDNSADERFDATFHTNVEVNSSGHCQYLPPGIFKSSCPMDLKNFPMDVQTCKLKFGSWSYGGWSLDLQMQEADISGYIPNGEWDLVGIPGKRSERFYECCKEPYPDVTFTVTMRRRMGYYLIQMYIPSLLIVILSWISFWINMDAAPARVGLGITTVLTMTTQSSGSRASLPKVSYVKAIDIWMAVCLLFVFSALLEYAAVNFVSRQHKELLRFRRKRRHHKSPMLNLFQEDEAGEGRFNFSAYGMGPACLQAKDGISVKGANNSNTTNPPPAPSKSPEEMRKLFIQRAKKIDKISRIGFPMAFLIFNMFYWIIYKIVRREDVHNQ
# modifications: synthetic sequence of chimeric LGIC
# B2: CODA965: engineered chimeric LGIC receptor, Y140C in SEQ ID NO: 33 (protein)
# chain: B1 chain with D115Y, E131L, Y140C
# modifications: synthetic sequence of chimeric LGIC
# B3: CODA952: engineered chimeric LGIC receptor, Y140I in SEQ ID NO: 33 (protein)
# chain: B1 chain with D115Y, E131L, Y140I
# modifications: synthetic sequence of chimeric LGIC
# System: Lenti-X 293T cells
# Experiment: YFP fluorescence quenching anion reporter plate reader assay of engineered receptors stimulated with acetylcholine or a non-native ligand
# Assay type: cell-based
# Details: for percent quench of YFP fluorescence, 30 nM TC-6683: TC-6683 30 nM; for percent quench of YFP fluorescence, 300 nM TC-6683: TC-6683 300 nM; for percent quench of YFP fluorescence, 3 uM TC-6683: TC-6683 3 uM; for percent quench of YFP fluorescence, 30 uM TC-6683: TC-6683 30 uM; for percent quench of YFP fluorescence, 100 uM TC-6683: TC-6683 100 uM; for percent quench of YFP fluorescence, 10 uM ach: acetylcholine 10 uM; for percent quench of YFP fluorescence, 100 uM ach: acetylcholine 100 uM; for percent quench of YFP fluorescence, 1 mM ach: acetylcholine 1 mM; for percent quench of YFP fluorescence, 3 mM ach: acetylcholine 3 mM
# How it was run: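 Lenti-X 293T cells carrying a YFP anion reporter were transiently transfected with channel DNA and assayed the next day in HEPES-buffered ECS at pH 7.2. Ligand (acetylcholine or non-native ligand) was added in NaI-substituted ECS. Percent quench was the mean of the last 10 s relative to the 15 s pre-addition baseline.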
molecule,measurement,setting,value
B1,YFP fluorescence quenching using CNL001,"1 nM CNL001, first column",0.885%
same,YFP fluorescence quenching using CNL001,"1 nM CNL001, second column",−1.707%
same,YFP fluorescence quenching using TC-5619/Bradanicline,1 nM brd,−1.52%
same,YFP fluorescence quenching using TC-5619/Bradanicline,3 nM brd,−5.35%
same,YFP fluorescence quenching using CNL001,"10 nM CNL001, first column",−0.567%
same,YFP fluorescence quenching using CNL001,"10 nM CNL001, second column",0.043%
same,YFP fluorescence quenching using TC-5619/Bradanicline,10 nM brd,−3.49%
same,YFP fluorescence quenching using TC-5619/Bradanicline,30 nM brd,−2.16%
same,YFP fluorescence quenching using Facinicline,30 nM fac,45.76
same,YFP fluorescence quenching using CNL001,"50 nM CNL001, first column",5.141%
same,YFP fluorescence quenching using CNL001,"50 nM CNL001, second column",9.409%
same,YFP fluorescence quenching using ABT-126,50 nM abt,−1.68%
same,YFP fluorescence quenching using CNL001,"100 nM CNL001, first column",9.796%
same,YFP fluorescence quenching using CNL001,"100 nM CNL001, second column",11.009%
same,YFP fluorescence quenching using CNL002,100 nM CNL002,−5.71%
same,YFP fluorescence quenching using ABT-126,100 nM abt,−2.25%
same,YFP fluorescence quenching using AZD-0328,100 nM azd0328,24.49%
same,YFP fluorescence quenching using TC-5619/Bradanicline,100 nM brd,4.18%
same,YFP fluorescence quenching using Facinicline,100 nM fac,63.92
same,YFP fluorescence quenching using ABT-126,300 nM abt,−2.37%
same,YFP fluorescence quenching using AZD-0328,300 nM azd0328,45.34%
same,YFP fluorescence quenching using TC-5619/Bradanicline,300 nM brd,70.2%
same,YFP fluorescence quenching using Facinicline,300 nM fac,79.43
same,YFP fluorescence quenching using CNL001,"1 uM CNL001, first column",27.914%
same,YFP fluorescence quenching using CNL001,"1 uM CNL001, second column",29.109%
same,YFP fluorescence quenching using CNL002,1 uM CNL002,13.03%
same,YFP fluorescence quenching using ABT-126,1 uM abt,3.68%
same,YFP fluorescence quenching using TC-5619/Bradanicline,1 uM brd,43.11%
same,YFP fluorescence quenching using TC-6987,1 uM tc6987,36.07
same,YFP fluorescence quenching using Facinicline,10 uM fac,80.1
same,YFP fluorescence quenching using TC-6987,10 uM tc6987,31.35
same,YFP fluorescence quenching using CNL002,30 uM CNL002,25.2%
same,YFP fluorescence quenching using AZD-0328,30 uM azd0328,71.21%
same,YFP fluorescence quenching using Facinicline,30 uM fac,84.91
same,YFP fluorescence quenching using TC-6987,500 uM tc6987,28.18
same,"percent quench of YFP fluorescence, 30 nM TC-6683",,−26.801%
same,"percent quench of YFP fluorescence, 300 nM TC-6683",,−25.363%
same,"percent quench of YFP fluorescence, 3 uM TC-6683",,−23.651%
same,"percent quench of YFP fluorescence, 30 uM TC-6683",,−26.235%
same,"percent quench of YFP fluorescence, 100 uM TC-6683",,−24.182%
same,"percent quench of YFP fluorescence, 10 uM ach",,15.45%
same,"percent quench of YFP fluorescence, 100 uM ach",,13.77%
same,"percent quench of YFP fluorescence, 1 mM ach",,27.42%
same,"percent quench of YFP fluorescence, 3 mM ach",,53.62%
B2,YFP fluorescence quenching using CNL001,"1 nM CNL001, first column",−12.765%
same,YFP fluorescence quenching using CNL001,"1 nM CNL001, second column",−12.608%
same,YFP fluorescence quenching using TC-5619/Bradanicline,3 nM brd,−18.49%
same,YFP fluorescence quenching using Varenicline,"3 nM var, first column",−17.716
same,YFP fluorescence quenching using Varenicline,"3 nM var, second column",−23.019
same,YFP fluorescence quenching using CNL001,"10 nM CNL001, first column",68.134%
same,YFP fluorescence quenching using CNL001,"10 nM CNL001, second column",71.394%
same,YFP fluorescence quenching using TC-5619/Bradanicline,30 nM brd,22.66%
same,YFP fluorescence quenching using Facinicline,30 nM fac,−12.29
same,YFP fluorescence quenching using Varenicline,"30 nM var, first column",−14.993
same,YFP fluorescence quenching using Varenicline,"30 nM var, second column",−12.182
same,YFP fluorescence quenching using CNL001,"50 nM CNL001, first column",80.298%
same,YFP fluorescence quenching using CNL001,"50 nM CNL001, second column",82.159%
same,YFP fluorescence quenching using ABT-126,50 nM abt,−10.75%
same,YFP fluorescence quenching using CNL001,"100 nM CNL001, first column",82.404%
same,YFP fluorescence quenching using CNL001,"100 nM CNL001, second column",82.14%
same,YFP fluorescence quenching using CNL002,100 nM CNL002,43.24%
same,YFP fluorescence quenching using ABT-126,100 nM abt,−4.11%
same,YFP fluorescence quenching using AZD-0328,100 nM azd0328,−16.69%
same,YFP fluorescence quenching using ABT-126,300 nM abt,18.93%
same,YFP fluorescence quenching using AZD-0328,300 nM azd0328,1.3%
same,YFP fluorescence quenching using TC-5619/Bradanicline,300 nM brd,38.02%
same,YFP fluorescence quenching using Facinicline,300 nM fac,20.11
same,YFP fluorescence quenching using Varenicline,"300 nM var, first column",−11.731
same,YFP fluorescence quenching using Varenicline,"300 nM var, second column",−10.13
same,YFP fluorescence quenching using Varenicline,"500 nM var, first column",−12.518
same,YFP fluorescence quenching using Varenicline,"500 nM var, second column",−15.043
same,YFP fluorescence quenching using CNL001,"1 uM CNL001, first column",82.34%
same,YFP fluorescence quenching using CNL001,"1 uM CNL001, second column",80.649%
same,YFP fluorescence quenching using CNL002,1 uM CNL002,42.72%
same,YFP fluorescence quenching using ABT-126,1 uM abt,52.64%
same,YFP fluorescence quenching using TC-6987,1 uM tc6987,2.73
same,YFP fluorescence quenching using Varenicline,"1 uM var, first column",−13.385
same,YFP fluorescence quenching using Varenicline,"1 uM var, second column",−17.022
same,YFP fluorescence quenching using TC-6987,10 uM tc6987,30.37
same,YFP fluorescence quenching using CNL002,30 uM CNL002,51.43%
same,YFP fluorescence quenching using AZD-0328,30 uM azd0328,21.78%
same,YFP fluorescence quenching using Facinicline,30 uM fac,37.62
same,YFP fluorescence quenching using TC-6987,500 uM tc6987,33.07
same,"percent quench of YFP fluorescence, 30 nM TC-6683",,−8.21%
same,"percent quench of YFP fluorescence, 300 nM TC-6683",,−16.37%
same,"percent quench of YFP fluorescence, 3 uM TC-6683",,−19.48%
same,"percent quench of YFP fluorescence, 30 uM TC-6683",,−24.32%
same,"percent quench of YFP fluorescence, 100 uM TC-6683",,−24.99%
same,"percent quench of YFP fluorescence, 10 uM ach",,−21.71%
same,"percent quench of YFP fluorescence, 100 uM ach",,3.49%
same,"percent quench of YFP fluorescence, 1 mM ach",,63.34%
same,"percent quench of YFP fluorescence, 3 mM ach",,51.92%
B3,YFP fluorescence quenching using CNL001,"1 nM CNL001, first column",0.368%
same,YFP fluorescence quenching using CNL001,"1 nM CNL001, second column",−1.976%
same,YFP fluorescence quenching using TC-5619/Bradanicline,3 nM brd,−2.45%
same,YFP fluorescence quenching using Varenicline,"3 nM var, first column",−22.522
same,YFP fluorescence quenching using Varenicline,"3 nM var, second column",−18.173
same,YFP fluorescence quenching using CNL001,"10 nM CNL001, first column",−3.923%
same,YFP fluorescence quenching using CNL001,"10 nM CNL001, second column",4.348%
same,YFP fluorescence quenching using TC-5619/Bradanicline,30 nM brd,66.97%
same,YFP fluorescence quenching using Facinicline,30 nM fac,−8.83
same,YFP fluorescence quenching using Varenicline,"30 nM var, first column",−15.306
same,YFP fluorescence quenching using Varenicline,"30 nM var, second column",−12.832
same,YFP fluorescence quenching using CNL001,"50 nM CNL001, first column",74.107%
same,YFP fluorescence quenching using CNL001,"50 nM CNL001, second column",75.866%
same,YFP fluorescence quenching using ABT-126,50 nM abt,−12.34%
same,YFP fluorescence quenching using CNL001,"100 nM CNL001, first column",80.323%
same,YFP fluorescence quenching using CNL001,"100 nM CNL001, second column",81.996%
same,YFP fluorescence quenching using CNL002,100 nM CNL002,32.58%
same,YFP fluorescence quenching using ABT-126,100 nM abt,−11.57%
same,YFP fluorescence quenching using AZD-0328,100 nM azd0328,−12.96%
same,YFP fluorescence quenching using ABT-126,300 nM abt,−5.21%
same,YFP fluorescence quenching using AZD-0328,300 nM azd0328,−13.21%
same,YFP fluorescence quenching using TC-5619/Bradanicline,300 nM brd,78.48%
same,YFP fluorescence quenching using Facinicline,300 nM fac,51.6
same,YFP fluorescence quenching using Varenicline,"300 nM var, first column",−14.671
same,YFP fluorescence quenching using Varenicline,"300 nM var, second column",−17.016
same,YFP fluorescence quenching using Varenicline,"500 nM var, first column",−16.713
same,YFP fluorescence quenching using Varenicline,"500 nM var, second column",−18.893
same,YFP fluorescence quenching using CNL001,"1 uM CNL001, first column",83.489%
same,YFP fluorescence quenching using CNL001,"1 uM CNL001, second column",82.208%
same,YFP fluorescence quenching using CNL002,1 uM CNL002,69.08%
same,YFP fluorescence quenching using ABT-126,1 uM abt,3.93%
same,YFP fluorescence quenching using TC-6987,1 uM tc6987,6.03
same,YFP fluorescence quenching using Varenicline,"1 uM var, first column",−15.847
same,YFP fluorescence quenching using Varenicline,"1 uM var, second column",−16.236
same,YFP fluorescence quenching using TC-6987,10 uM tc6987,2.25
same,YFP fluorescence quenching using CNL002,30 uM CNL002,73.28%
same,YFP fluorescence quenching using AZD-0328,30 uM azd0328,68.5%
same,YFP fluorescence quenching using Facinicline,30 uM fac,71.01
same,YFP fluorescence quenching using TC-6987,500 uM tc6987,−0.24
same,"percent quench of YFP fluorescence, 30 nM TC-6683",,−27.7%
same,"percent quench of YFP fluorescence, 300 nM TC-6683",,−26.87%
same,"percent quench of YFP fluorescence, 3 uM TC-6683",,−31.2%
same,"percent quench of YFP fluorescence, 30 uM TC-6683",,−33.12%
same,"percent quench of YFP fluorescence, 100 uM TC-6683",,−24.67%
same,"percent quench of YFP fluorescence, 10 uM ach",,−1.97%
same,"percent quench of YFP fluorescence, 100 uM ach",,2.79%
same,"percent quench of YFP fluorescence, 1 mM ach",,58.81%
same,"percent quench of YFP fluorescence, 3 mM ach",,66.9%
